From patent US20040087497A1 (Bristol-Myers Squibb, published 2004)
Starred links: 1 amine or outer side, 2 acyl side, 3 side chain; linkers in the order of their positions; H or OH if unused. Non-standard residues stand in square brackets, D forms with d. Suc = O=C(CCC(=O)[*:2])[*:1]; Dox = doxorubicin; βAla = NCCC(=O)O

Assays:
Experiment in all cases: cell-based or functional assay
human CD10 [1] = target: T1, human CD10 (human, UniProt P08473 2-750)
human CD10 [2] = target: T1, human CD10; remark: listed apart in the source
human CD10 [3] = target: T1, human CD10; remark: listed apart in the source
human CD10 [4] = target: T1, human CD10; remark: listed apart in the source
human CD10 [5] = target: T1, human CD10; remark: listed apart in the source
human CD10 [6] = target: T1, human CD10; remark: listed apart in the source
[7] = target: Prostate Specific Antigen (PSA) (human, UniProt P07288 25-261)
human CD10 [8] = target: T1, human CD10; remark: listed apart in the source

T1 sequence (P08473 2-750): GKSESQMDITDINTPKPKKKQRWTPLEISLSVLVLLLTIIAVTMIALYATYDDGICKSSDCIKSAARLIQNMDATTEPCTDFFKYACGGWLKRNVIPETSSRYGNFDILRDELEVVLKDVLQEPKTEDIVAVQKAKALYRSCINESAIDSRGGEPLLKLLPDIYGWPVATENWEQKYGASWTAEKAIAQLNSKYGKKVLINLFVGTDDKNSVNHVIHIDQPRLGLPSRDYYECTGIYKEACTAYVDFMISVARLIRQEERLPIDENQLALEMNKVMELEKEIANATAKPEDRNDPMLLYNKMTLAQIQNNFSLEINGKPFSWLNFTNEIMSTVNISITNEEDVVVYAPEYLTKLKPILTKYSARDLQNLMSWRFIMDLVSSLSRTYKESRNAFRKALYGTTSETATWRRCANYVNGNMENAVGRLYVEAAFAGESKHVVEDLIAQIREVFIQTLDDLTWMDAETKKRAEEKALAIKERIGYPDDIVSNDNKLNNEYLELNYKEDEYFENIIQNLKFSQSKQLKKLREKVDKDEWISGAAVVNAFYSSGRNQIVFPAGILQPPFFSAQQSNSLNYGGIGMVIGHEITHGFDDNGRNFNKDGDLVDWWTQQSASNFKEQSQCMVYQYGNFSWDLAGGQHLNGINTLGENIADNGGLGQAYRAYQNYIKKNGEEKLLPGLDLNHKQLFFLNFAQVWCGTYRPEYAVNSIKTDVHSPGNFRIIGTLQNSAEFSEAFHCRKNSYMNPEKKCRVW
Sequence of Prostate Specific Antigen (PSA) (P07288 25-261 limits assumed): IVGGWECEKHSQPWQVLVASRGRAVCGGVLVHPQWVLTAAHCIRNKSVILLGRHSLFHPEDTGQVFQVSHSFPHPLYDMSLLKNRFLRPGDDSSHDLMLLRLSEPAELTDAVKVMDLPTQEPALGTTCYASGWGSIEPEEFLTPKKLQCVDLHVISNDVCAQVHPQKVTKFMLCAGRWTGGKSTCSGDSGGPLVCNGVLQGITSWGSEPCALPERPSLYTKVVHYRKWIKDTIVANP

## Suc-Leu-Ala-Gly-Dox [Suc-Leu-Ala-Gly-Dox]
Human CD10 [1]
  IC50, proliferation of HL60 cells with supernatant of compound-treated CHO Clone 8 (CD10 Pos.): > 25 µM
  IC50, proliferation of HL60 cells with supernatant of compound-treated CHO Clone DB4 (CD10 Pos.): > 25 µM

## Suc-[βAla]IAL-Dox [Suc-βAla-Ile-Ala-Leu-Dox]
Human CD10 [2]
  IC50, 3H thymidine proliferation, CD10 transfected CHO Clone #3: 19000 µM
  IC50, 3H thymidine proliferation, CD10 transfected CHO Clone #5: 19000 µM
  IC50, 3H thymidine proliferation, CD10 transfected CHO Clone #7: 11000 µM
  IC50, 3H thymidine proliferation, CD10 transfected CHO Clone #8: 8400 µM
  IC50, 3H thymidine proliferation, CD10 transfected CHO clone DB4: 4200 µM
  IC50, 3H thymidine proliferation, LnCap cells (CD10 positive): 390 µM
  IC50, 3H thymidine proliferation, Ramos cells: 440 µM
Human CD10 [3]
  IC50 on LNCaP cells (CD10pos) with 0 nM phosphoramidon: 0.24 µM
  IC50 on LNCaP cells (CD10pos) with 30 nM phosphoramidon: 1.3 µM
  IC50 on LNCaP cells (CD10pos) with 100 nM phosphoramidon: 3.3 µM
  IC50 on LNCaP cells (CD10pos) with 300 nM phosphoramidon: 7.7 µM
  IC50 on LNCaP cells (CD10pos) with 1000 nM phosphoramidon: 11.3 µM
  IC50 on LNCaP cells (CD10pos) with 3000 nM phosphoramidon: 15.4 µM
  IC50 on Ramos cells (CD10pos) with 0 nM phosphoramidon: 0.51 µM
  IC50 on Ramos cells (CD10pos) with 30 nM phosphoramidon: 2.1 µM
  IC50 on Ramos cells (CD10pos) with 100 nM phosphoramidon: 5.3 µM
  IC50 on Ramos cells (CD10pos) with 300 nM phosphoramidon: 8.1 µM
  IC50 on Ramos cells (CD10pos) with 1000 nM phosphoramidon: 9.7 µM
  IC50 on Ramos cells (CD10pos) with 3000 nM phosphoramidon: 10.5 µM
Human CD10 [1]
  IC50, proliferation of HL60 cells with supernatant of compound-treated CHO Clone 8 (CD10 Pos.): 2.7 µM
  IC50, proliferation of HL60 cells with supernatant of compound-treated CHO Clone DB4 (CD10 Pos.): 5.4 µM
Human CD10 [4]
  IC50 on LNCaP cells (CD10pos) with DL-Thiorphan 0: 0.51 µM
  IC50 on LNCaP cells (CD10pos) with DL-Thiorphan 30: 2.1 µM
  IC50 on LNCaP cells (CD10pos) with DL-Thiorphan 100: 5.3 µM
  IC50 on LNCaP cells (CD10pos) with DL-Thiorphan 300: 8.1 µM
  IC50 on LNCaP cells (CD10pos) with DL-Thiorphan 1000: 9.7 µM
  IC50 on LNCaP cells (CD10pos) with DL-Thiorphan 3000: 10.5 µM
  IC50 on Ramos cells (CD10pos) with DL-Thiorphan 0: 0.25 µM
  IC50 on Ramos cells (CD10pos) with DL-Thiorphan 30: 0.27 µM
  IC50 on Ramos cells (CD10pos) with DL-Thiorphan 100: 0.31 µM
  IC50 on Ramos cells (CD10pos) with DL-Thiorphan 300: 0.28 µM
  IC50 on Ramos cells (CD10pos) with DL-Thiorphan 1000: 0.44 µM
  IC50 on Ramos cells (CD10pos) with DL-Thiorphan 3000: 1.1 µM
Human CD10 [5]
  difference between IC50 of Dox and of Suc-βAla-Ile-Ala-Leu-Dox, CD10 transfected CHO cells: ~16 fold
Human CD10 [6]
  IC50, 3H-thymidine proliferation, LnCAP cells (CD10+ PSA+): 150 µM
[7]
  IC50, 3H-thymidine proliferation, 22RV1 cells (CD10- PSA+): 10800 µM
Human CD10 [8]
  Ratio of IC50 Suc-β-Ala-Ile-Ala-Leu/Dox, CD10 transfected CHO Clone #7: 17 ratio
  Ratio of IC50 Suc-β-Ala-Ile-Ala-Leu/Dox, CD10 transfected CHO Clone #8: 15 ratio
  Ratio of IC50 Suc-β-Ala-Ile-Ala-Leu/Dox, CD10 transfected CHO clone DB4: 14 ratio
  Ratio of IC50 Suc-β-Ala-Ile-Ala-Leu/Dox, LnCap cells: 3 ratio

## Suc-[βAla]LAL-Dox [Suc-βAla-Leu-Ala-Leu-Dox]
Human CD10 [2]
  IC50, 3H thymidine proliferation, CD10 transfected CHO Clone #3: 19000 µM
  IC50, 3H thymidine proliferation, CD10 transfected CHO Clone #5: 24000 µM
  IC50, 3H thymidine proliferation, CD10 transfected CHO Clone #7: 13000 µM
  IC50, 3H thymidine proliferation, CD10 transfected CHO Clone #8: 10000 µM
  IC50, 3H thymidine proliferation, CD10 transfected CHO clone DB4: 5400 µM
  IC50, 3H thymidine proliferation, LnCap cells (CD10 positive): 510 µM
  IC50, 3H thymidine proliferation, Ramos cells: 840 µM
Human CD10 [5]
  shift of IC50 on LNCaP cells treated with 100 nM of phosphoramidon: 7 fold

## Suc-Ile-Ala-Leu-Dox [Suc-Ile-Ala-Leu-Dox]
Human CD10 [6]
  IC50, 3H-thymidine proliferation, LnCAP cells (CD10+ PSA+): 170 µM
[7]
  IC50, 3H-thymidine proliferation, 22RV1 cells (CD10- PSA+): 14000 µM
